# Like-named read-outs stand apart in the source and are kept apart here.
# Experiments:
# [1] = biological target: HLA-DR1 (DRα1*0101/DRβ1*0101) refolded in the absence of peptide; assay: IC50 APL stability assay (peptide binding to DR1); settings: read off a plot
# [2] = biological target: HLA-DR1 (DRα1*0101/DRβ1*0101) with the influenza hemagglutinin peptide HA306-318 (human | influenza virus); assay: SPR
# [3] = biological target: HLA-DR1 (DRα1*0101/DRβ1*0101) with the influenza hemagglutinin peptide HA306-318 (human | influenza virus); assay: SPR; remark: listed apart in the source
# [4] = biological target: HLA-DR1 (DRα1*0101/DRβ1*0101) with the influenza hemagglutinin peptide HA306-318 (human | influenza virus); assay: SPR; remark: listed apart in the source
# [5] = biological target: HLA-DR1 (DRα1*0101/DRβ1*0101) with the influenza hemagglutinin peptide HA306-318 (human | influenza virus); assay: SPR; remark: listed apart in the source
# [6] = biological target: HLA-DR1 (DRα1*0101/DRβ1*0101) with the influenza hemagglutinin peptide HA306-318 (human | influenza virus); assay: SPR; remark: listed apart in the source
# [7] = biological target: HLA-DR4 (DRα1*0101/DRβ1*0401) with the influenza hemagglutinin peptide HA306-318 (human | influenza virus); assay: SPR
# [8] = biological target: HLA-DR4 (DRα1*0101/DRβ1*0401) with the influenza hemagglutinin peptide HA306-318 (human | influenza virus); assay: SPR; remark: listed apart in the source
# [9] = biological target: HLA-DR4 (DRα1*0101/DRβ1*0401) with the influenza hemagglutinin peptide HA306-318 (human | influenza virus); assay: SPR; remark: listed apart in the source
# [10] = biological target: HLA-DR4 (DRα1*0101/DRβ1*0401) with the influenza hemagglutinin peptide HA306-318 (human | influenza virus); assay: SPR; remark: listed apart in the source
# [11] = biological target: HLA-DR4 (DRα1*0101/DRβ1*0401) with the influenza hemagglutinin peptide HA306-318 (human | influenza virus); assay: SPR; remark: listed apart in the source
substance,measurement,setting,value
HA306-318 peptide (wild-type HA) K310V,IC50,[1]; parent: est. 12,0.01 µM
HA306-318 peptide (wild-type HA) V309E,IC50,[1]; parent: est. 12,0.03 µM
HA306-318 peptide (wild-type HA) Y308A,IC50,[1]; parent: est. 13,22 µM
HA306-318 peptide (wild-type HA) N312T,IC50,[1]; parent: est. 12,0.015 µM
HA306-318 peptide (wild-type HA) K307S,IC50,[1]; parent: est. 12,0.022 µM
HA306-318 peptide (wild-type HA) N312S,IC50,[1]; parent: est. 12,0.012 µM
HA306-318 peptide (wild-type HA) N312K,IC50,[1]; parent: est. 12,0.018 µM
HA306-318 peptide (wild-type HA) V309R,IC50,[1]; parent: est. 12,0.021 µM
"HA1.7 TCR (soluble, extracellular variable and constant domains with an engineered disulphide link)",Kd,[2],62 µM
same,Kd,[3],28 µM
same,Kd,[4],204 µM
same,Kd,[5],36 µM
same,Kd,[6],531 µM
same,dH,[6],18 kcal/mol
same,Kd,[7],1270 µM
same,dH,[7],16 kcal/mol
same,Kd,[8],89 µM
same,Kd,[9],55 µM
same,Kd,[10],291 µM
same,Kd,[11],48 µM
HA306-318 peptide (wild-type HA) N312Q,IC50,[1]; parent: est. 12,0.011 µM
HA306-318 peptide (wild-type HA) K310F,IC50,[1]; parent: est. 12,0.008 µM
HA306-318 peptide (wild-type HA) K315H,IC50,[1]; parent: est. 12,0.013 µM
HA306-318 peptide (wild-type HA) N312F,IC50,[1]; parent: est. 12,0.006 µM
